The text below walks through data of paper PMC11440508, “Dually Labeled Neurotensin NTS1R Ligands for Probing Radiochemical and Fluorescence-Based Binding Assays” (Journal of Medicinal Chemistry, 2024).

In general, Ki refers to the equilibrium dissociation constant of an inhibitor or competing ligand from its target. What is called Kd is the free concentration of one partner at which half of the binding sites on the other are occupied at equilibrium, for simple one-to-one binding. High values mean lower affinity, low ones higher affinity.

Values joined by “and” are separate entries in the source; they are usually repeats but may differ in a detail not shown here. Equal values may be shown once. Read-outs that look alike come from different tables or passages of the source.

The target in experiment [1] is NTS1R (Homo sapiens) (UniProt P30989). Description: radioligand competition binding. The conditions noted are these: cited from earlier work.
Sequence of NTS1R (Homo sapiens) (P30989 whole entry): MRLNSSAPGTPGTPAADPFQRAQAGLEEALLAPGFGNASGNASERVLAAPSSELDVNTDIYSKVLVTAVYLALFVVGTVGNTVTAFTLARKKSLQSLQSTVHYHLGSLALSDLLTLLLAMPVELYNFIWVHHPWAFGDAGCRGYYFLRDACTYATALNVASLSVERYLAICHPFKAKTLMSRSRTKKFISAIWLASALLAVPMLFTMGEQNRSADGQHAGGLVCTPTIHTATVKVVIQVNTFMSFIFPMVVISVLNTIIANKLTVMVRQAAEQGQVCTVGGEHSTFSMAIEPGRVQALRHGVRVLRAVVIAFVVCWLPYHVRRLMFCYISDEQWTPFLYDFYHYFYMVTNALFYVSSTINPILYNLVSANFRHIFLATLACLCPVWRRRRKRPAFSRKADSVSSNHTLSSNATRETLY
Experiment [2] has the same target. Particulars: cited from earlier work.
For experiment [3], the target named is neurotensin NT(8-13) 8-13 (Homo sapiens) (UniProt P30990). Particulars: cited from earlier work.
Sequence of neurotensin NT(8-13) 8-13 (Homo sapiens) (P30990 whole entry, looked up, tested part not stated): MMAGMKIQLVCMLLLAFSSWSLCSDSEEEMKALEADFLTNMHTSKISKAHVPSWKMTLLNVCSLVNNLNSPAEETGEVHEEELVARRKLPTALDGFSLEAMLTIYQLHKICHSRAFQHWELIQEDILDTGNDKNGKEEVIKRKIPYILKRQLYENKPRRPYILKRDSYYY
For experiment [4] the target is unchanged. Description: radioligand competition binding. Particulars: cited from earlier work.
Experiment [5] has as its target human neurotensin receptor type 2 (hNTS2R) in homogenates of HEK293T cells (human) (UniProt O95665). Description: radioligand binding; saturation binding of [^3H]UR-MK300 at homogenates of HEK293T-hNTS2R cells.
The target in experiment [6] is human neurotensin receptor type 1 (hNTS1R), endogenous in HT-29 colon carcinoma cells (human (endogenous in HT-29)) (UniProt P30989). Description: radioligand binding; saturation binding of [^3H]UR-MK300 at intact HT-29 cells, 23 ± 1 °C.
Sequence of human neurotensin receptor type 1 (hNTS1R), endogenous in HT-29 colon carcinoma cells (human (endogenous in HT-29)) (P30989 whole entry): as the sequence (P30989 whole entry) above

Sequence of NTS1R (P30989 whole entry): as above
Sequence of NT(8–13) 8-13 (P30990 whole entry, looked up, tested part not stated): as the sequence (P30990 whole entry, looked up, tested part not stated) above
Sequence of human neurotensin receptor type 2 (hNTS2R) in homogenates of HEK293T cells (human) (O95665 whole entry): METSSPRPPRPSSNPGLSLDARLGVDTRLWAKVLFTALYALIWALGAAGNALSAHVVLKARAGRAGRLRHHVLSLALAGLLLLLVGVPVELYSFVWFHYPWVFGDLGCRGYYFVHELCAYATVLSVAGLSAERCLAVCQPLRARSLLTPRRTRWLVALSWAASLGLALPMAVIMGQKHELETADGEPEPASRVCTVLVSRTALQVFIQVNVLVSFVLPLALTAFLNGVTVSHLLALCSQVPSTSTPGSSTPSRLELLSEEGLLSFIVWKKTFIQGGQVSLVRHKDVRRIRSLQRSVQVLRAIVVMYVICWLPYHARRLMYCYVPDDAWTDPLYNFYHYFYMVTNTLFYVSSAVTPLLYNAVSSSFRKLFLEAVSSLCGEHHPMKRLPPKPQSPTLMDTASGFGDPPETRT

Take NT(8–13) 8-13 (from UniProt P30990): the Ki with NTS1R (Homo sapiens) [1] was 0.14 nM; with NTS1R (Homo sapiens) [2], 1 nM and 0.24 nM.

NTS1R (from UniProt P30989): the Ki was 1 nM and 0.24 nM and 0.29 nM in experiment [3]; 0.14 nM in experiment [4].

Consider [^3H]UR-MK300 (peptide), for which the Kd in experiment [5] worked out at 0.75 nM; in experiment [6], 0.41 nM.
